This is an account of results in paper PMC13121748, “Phase separation of PGL-3 driven by structured domains that oligomerize and interact with RGG motifs” (EMBO Reports, 2025).

Values joined by “and” are separate entries in the source; they are usually repeats but may differ in a detail not shown here. Equal values may be shown once.

Data set [1] deals with the molecule itself. Put plainly: cross-linking; XL-MS: 7.5 uM full-length PGL-3, 2 mM DSBU, 1 h room temperature, 25 mM HEPES pH 7.5, 125 mM NaCl (condensing) or 500 mM NaCl (non-condensing); trypsin digest, LC-MS/MS, Scout search.
In data set [2] the target is T1, PGL-3 RGG region peptide (native) (Caenorhabditis elegans, UniProt G5EBV6 623-693).
T1 sequence: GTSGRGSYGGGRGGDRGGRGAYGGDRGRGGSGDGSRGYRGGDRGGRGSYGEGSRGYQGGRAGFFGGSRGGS
As to the kind of experiment: BLI; RNA on tip, RGG peptide in solution; 1:1 fit; KD ~2-fold higher than RGG:D1, value not given; BLI: 25 mM HEPES pH 7.5, 125 mM NaCl, 0.01 mg/ml BSA, 0.02% Tween-20, temperature not stated; condensate assays at 125 mM NaCl. Particulars: tags: none; unlabeled in BLI; label: 5' biotin; single strand. A general note: BLI is a label-free optical method that tracks binding on a fibre tip over time.

The target in data set [3] is PGL-3(D1-D2) (C. elegans) (UniProt G5EBV6).
For data set [4] the target is unchanged. This is another data set of the same source.
Data set [5] has the same target. The source holds these as a separate data set.
For data set [6], the target named is T2, PGL-3(D1) (C. elegans, trace-labelled with DyLight 488 (NHS ester) in the FA crosslinking; biotinylated with NHS-PEG12-Biotin when immobilised in BLI).
T2 chain: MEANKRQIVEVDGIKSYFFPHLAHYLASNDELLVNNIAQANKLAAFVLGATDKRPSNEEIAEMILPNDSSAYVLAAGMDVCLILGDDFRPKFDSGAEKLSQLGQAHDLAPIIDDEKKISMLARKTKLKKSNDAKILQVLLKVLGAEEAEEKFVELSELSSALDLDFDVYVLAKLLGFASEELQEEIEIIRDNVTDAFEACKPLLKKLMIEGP
As to the kind of experiment: BLI.

Data set [7] has as its target T2, PGL-3(D1). As to the kind of experiment: BLI; biotinylated D1 on streptavidin tips, RGG peptide in solution; 125 mM NaCl, 0.01 mg/ml BSA, 0.02% Tween-20, 25 mM HEPES pH 7.5; 1:1 binding model; Octet Red96.
Data set [8] deals with the molecule itself. As to the kind of experiment: mass photometry; unlabeled D1-D2 at 50 to 100 nM in 125 mM NaCl, 25 mM HEPES pH 7.5, TwoMP (Refeyn).

B1: full-length, untagged PGL-3 (natural protein, C. elegans, UniProt G5EBV6 1-693, looked up)
chain: MEANKRQIVEVDGIKSYFFPHLAHYLASNDELLVNNIAQANKLAAFVLGATDKRPSNEEIAEMILPNDSSAYVLAAGMDVCLILGDDFRPKFDSGAEKLSQLGQAHDLAPIIDDEKKISMLARKTKLKKSNDAKILQVLLKVLGAEEAEEKFVELSELSSALDLDFDVYVLAKLLGFASEELQEEIEIIRDNVTDAFEACKPLLKKLMIEGPKIDSVDPFTQLLLTPQEESIEKAVSHIVARFEEASAVEDDESLVLKSQLGYQLIFLVVRSLADGKRDASRTIQSLMPSSVRAEVFPGLQRSVFKSAVFLASHIIQVFLGSMKSFEDWAFVGLAEDLESTWRRRAIAELLKKFRISVLEQCFSQPIPLLPQSELNNETVIENVNNALQFALWITEFYGSESEKKSLNQLQFLSPKSKNLLVDSFKKFAQGLDSKDHVNRIIESLEKSSSSEPSATAKQTTTSNGPTTVSTAAQVVTVEKMPFSRQTIPCEGTDLANVLNSAKIIGESVTVAAHDVIPEKLNAEKNDNTPSTASPVQFSSDGWDSPTKSVALPPKISTLEEEQEEDTTITKVSPQPQERTGTAWGSGDATPVPLATPVNEYKVSGFGAAPVASGFGQFASSNGTSGRGSYGGGRGGDRGGRGAYGGDRGRGGSGDGSRGYRGGDRGGRGSYGEGSRGYQGGRAGFFGGSRGGS
notes: PGL-3, C. elegans P granule protein, full length (D1, D2, internal IDR, C-terminal RGG region; residues to 693); also called PGL-3(FL); FL; not shown: 6xHis-MBP-6xHis, N-terminal, cleaved
For the molecule B1, the binding result in data set [1] is on record as “binds”.

B2: poly(U) 30-nt RNA (ssRNA)
RNA: UUUUUUUUUUUUUUUUUUUUUUUUUUUUUU
As to B2, the binding result in data set [2] was “binds”.

B3: PGL-3(RGG) synthetic peptide spanning the RGG region (peptide)
chain: T1 sequence
modifications: trace-labelled with Alexa Fluor 647 (NHS ester) in the FA crosslinking and partitioning; biotinylated with NHS-PEG12-Biotin when immobilised in BLI
The term Kd denotes the concentration at which binding is half-saturated. A lower Kd goes with a tighter complex. In data set [3], B3 registered a partition coefficient of the RGG peptide in D1-D2 condensates (5 uM each, in trans) of 1.3. Besides, the fraction of D1-D2 in the pellet (dense phase) with equimolar RGG peptide against buffer control in data set [4] was determined as 15%. The molecule also displayed a viscosity of D1-D2 condensates formed with equimolar RGG peptide against buffer (embedded beads) in data set [5] of 1.25 fold. In data set [6], this molecule had a dissociation constant Kd of 1630 nM. In addition, in data set [7], the fold faster koff than RGG:poly(U) RNA turned out to be 10 fold, the fold faster kon than RGG:poly(U) RNA is 20 fold and the fold lower KD than RGG:poly(U) RNA stood at 2 fold.

B4: PGL-3(D1-D2) (domain or fragment, C. elegans, UniProt G5EBV6 1-447, looked up)
chain: MEANKRQIVEVDGIKSYFFPHLAHYLASNDELLVNNIAQANKLAAFVLGATDKRPSNEEIAEMILPNDSSAYVLAAGMDVCLILGDDFRPKFDSGAEKLSQLGQAHDLAPIIDDEKKISMLARKTKLKKSNDAKILQVLLKVLGAEEAEEKFVELSELSSALDLDFDVYVLAKLLGFASEELQEEIEIIRDNVTDAFEACKPLLKKLMIEGPKIDSVDPFTQLLLTPQEESIEKAVSHIVARFEEASAVEDDESLVLKSQLGYQLIFLVVRSLADGKRDASRTIQSLMPSSVRAEVFPGLQRSVFKSAVFLASHIIQVFLGSMKSFEDWAFVGLAEDLESTWRRRAIAELLKKFRISVLEQCFSQPIPLLPQSELNNETVIENVNNALQFALWITEFYGSESEKKSLNQLQFLSPKSKNLLVDSFKKFAQGLDSKDHVNRIIESLEK
modifications: unlabeled in mass photometry; trace-labelled with DyLight 488 (partitioning) or Alexa Fluor 647 (pelleting) by NHS ester
notes: PGL-3, C. elegans, the first 447 amino acids, which span the folded domains D1 and D2; also called D1-D2 domain; not shown: 6xHis-MBP-6xHis, N-terminal, cleaved
For orientation: stoichiometry N means the number of molecules, sites or subunits per partner or assembly. Turning to B4, the “stoichiometry N” value in data set [8] is 2 and 4 and 6.
